For four substances, membrane ELA647 fluorescence (% WT), Kd and membrane apelin647 fluorescence (% WT) results are on record in paper PMC11680790, “Structural and functional determination of peptide versus small molecule ligand binding at the apelin receptor” (Nature Communications, 2024).

Experiment [1] addresses wild-type apelin receptor tagged C-terminally with eGFP (human) (UniProt P35414). The experiment in a line: fluorescent ligand binding on cells (high content confocal imaging); CHO-K1 cells transiently transfected with receptor-eGFP; apelin647 300 nM or ELA647 1 µM in HBSS, 90 min, room temperature, washed and fixed; mean membrane fluorescence of eGFP-positive cells as % WT; non-specific binding with 10 µM [Pyr1]apelin-13.

Experiment [2] deals with apelin receptor NxStaR (stabilised human apelin receptor) (human) (UniProt P35414). Nature of the experiment: SPR; Biacore T200; receptor immobilised on NTA chip (Ni-NTA capture and amine coupling); 10 °C; 0.01 M HEPES pH 7.5, […] NaCl, 0.02% DDM, 5% DMSO; single-cycle, 6.25-100 nM for Apelin-13 and ΔC2; 1:1 model.
Experiment [3] has the same target. Nature of the experiment: SPR; Biacore 8K+; receptors immobilised on NTA chip (Ni-NTA capture and amine coupling); 10 °C; pH 7.5 buffer (0.01 M HEPES, […] NaCl, 0.02% DDM, 5% DMSO); single-cycle, four concentrations; 1:1 model.
Experiment [4] shares this target. Nature of the experiment: SPR; Biacore 8K+; receptors immobilised on NTA chip (Ni-NTA capture and amine coupling); 10 °C; pH 6.0 buffer ([…] MES, […] NaCl, 0.02% DDM, 5% DMSO); single-cycle, four concentrations; 1:1 model. A general note: In SPR one partner is held on a chip, and binding of the other changes the refractive index at the surface.

Sequence of wild-type apelin receptor tagged C-terminally with eGFP (human) (P35414 whole entry): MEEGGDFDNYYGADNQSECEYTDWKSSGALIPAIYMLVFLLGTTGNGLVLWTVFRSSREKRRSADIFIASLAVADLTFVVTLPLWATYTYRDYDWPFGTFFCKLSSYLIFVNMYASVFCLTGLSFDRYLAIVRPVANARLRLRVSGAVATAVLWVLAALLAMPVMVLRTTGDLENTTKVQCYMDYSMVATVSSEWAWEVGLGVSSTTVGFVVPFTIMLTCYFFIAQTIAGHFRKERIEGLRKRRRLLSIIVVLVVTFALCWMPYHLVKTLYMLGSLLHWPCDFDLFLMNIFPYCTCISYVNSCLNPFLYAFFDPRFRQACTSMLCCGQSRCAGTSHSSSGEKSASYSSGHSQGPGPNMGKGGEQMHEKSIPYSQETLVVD

Take ELA647 fluorescently labelled peptide: the membrane ELA647 fluorescence (% WT) in experiment [1] amounted to 100 % WT.

In experiment [2], “apelin-13 ΔC2 (C-terminally truncated apelin-13 ending with M11) (peptide)” gave a Kd of 5.79 nM.

In experiment [1], “apelin647 fluorescently labelled peptide” yielded a membrane apelin647 fluorescence (% WT) of 100 % WT.

As to “NXE'992, chimeric peptide (pyrazole-QRPRL[AIB]S[PipALA]VPFP)”, the results for the Kd in experiment [3] and in experiment [4] were 3.27 nM and 21 nM, respectively.

What is called Kd is the free concentration of one partner at which half of the binding sites on the other are occupied at equilibrium, for simple one-to-one binding. Read a high Kd as a looser complex.
